Measurements taken from the nanobody polyreactivity screen of Harvey et al. (2022).

Assay: yeast display, Sf9 membrane polyspecificity reagent, FACS + sequencing; frameworks hold sequencing errors
Method in brief: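 Nanobodies came from a synthetic yeast display library in Saccharomyces cerevisiae BJ5465, induced with galactose for 36–48 hours and stained for 1 hour at 4 °C with 10% biotinylated, detergent-solubilized Sf9 membrane reagent. Cells were enriched on streptavidin microbeads and then FACS-sorted, with low and high (top ~1%) gates set on anti-HA fluorescence for expression and streptavidin fluorescence for reagent binding. Each polyreactivity label reflects the gate a clone came from. Genes were amplified by colony PCR, sequenced by MiSeq 2 × 250 and filtered by CDR length.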

| Sequence | polyreactivity (PSR sort gate) |
| --- | --- |
| QVQLVESGGVLVQPRGSLRLICAASGSTLAGNAMGWYRQAPGKEREFVAAISWSGGRTYYADSVKGRFTISRDNAKMTVYLQMNRMKPEDTAVYYCAARRGQTRYQYYYWGQGTQVTVSS | high polyreactivity |
| QVQLVESGGGLVQAGGSLRVSCAASGRIVWPNTMGWSRQAPGKERELVAAISWSGGSTYYADSVKGRFTISRDNAKNTVYLHRNSLKPEHTAVYSCAKRPPHYSWPKIIDFGSWGQGTQVTVSS | high polyreactivity |
| QVQLVESGGGLVQAGGSLRLSCAASGSIFTTYAMGWSRQAPGKERELVAAISRSGGSTYSADSVKGRFTISRDNANYTVYLQKNSLKPEDTAVYYCNAVSRYTSDYEDDYWGLGTQVTVSS | high polyreactivity |
| QVQLEESGGGLVQAGGRLRLSCAASGRIFSRNAMGGSRTATGKERELVAAISSSTGSTYYADSVKGRFTISRDNAKKTVYLQMNSLKPEDTAVYYCAARYWGDYFTEMNYWGQGTQVTVSS | high polyreactivity |
| QVQRVESGGGLVQEGGSLRLSCAASGRIFGYYAMGWYRQAPGKERELVAVITGNGSTYYADSVKGRFTISRDNAKNTVYLQRNSLNPEETAVYYCAARYVFVVRGRTVPRYYYWGQGTQVTVSS | high polyreactivity |
| QVQLVESGGGLVQAGGSLRISCAASGRIFDLYAMGWYRQPPGKERELVASISSDGSTNYADSVKGRFTISRDNAKNTVYLQMNSLKPEDTAVYYCATRKGRRYGYNYWGQGTQVTVSS | high polyreactivity |
| QVQLVESGGGLVQAGGSLRLSCAASGRIFWSNAMGWYRQAPGKEREFVAAISSSGGRTYYADSVKGRFTISRDNAKNTVYLQMNSLKPEDTAVYYCAASNGYQAVTYDYWGQGTQVTVSS | high polyreactivity |
| QVQLVESGGGLVQAGGSLRLSCAASGRIFDLKAMGWYRQAPGERKGVGCLYFLVWWSTYYADSVKGRFTISRDNAKNTVYLQMNSLKPVDTAVYYCAAVYFYSWEGDGDYWGQGTQVTVSS | low polyreactivity |
| QVQLVESGGGLFQAGGSLRLSCAASGFTFWYYAMGWYRQAPGKERELVAAISASGGSTYYADSVKVRFTISRDNAKNTVYLQMNCLKPEDTAVYYCAARYPSKFYNTYDRDYWGQGTQVTVSS | high polyreactivity |
| QVQHVESRGGIVQAGGSLRLSCAASGFTFAYYAMGRYRQAPGKERELVAAINYSGGSTYYADSVKGRFTISRDNAKNTVYLQMNSLKPEDTAVYYCATEYYRYDGSSYDYWGQGTQVTVSS | high polyreactivity |
| QVQHVESGGGLVQAGGSLRIRCAASGSIFDLNAMGWYRPAPGKEMELVAASSSGGGTYYADSVKGRFTISRDNAKKTVYLLMISLKPEDTALSDCNRVTRWTYNYWGQGSQVTVSS | high polyreactivity |
| QVQLVESGGGLVQAGGRLRLSCAASGIIFGYYALGWYRQAPGKERELVAAISSGGTTSYADSVKGRFTISRDNAKNTDYLQMNSLKPEDTAVYYCAADYDAAWYKDGYYYWGQGTQVTVSS | low polyreactivity |
| QVQLVESGGGLVQAGGSLRLSCAASGFIFIRNAMGWYRQAPGKQRELVATIRYSGGNTYYADSVKGRFTISRDNAKNTVYLQMNSLNPEDTAVYYCAAGSGYWGRSPTRCGQGGYWGQGTQVTVSS | high polyreactivity |
| QVQLVESGGGLVQAGGSLRLICAASGSTFRKYVMGWYRQAPGKERELVAAITKNGGSTYYADSVKGRFTISRDNAKNTVYLQMNSLKPEDTAVYYCATLRTGRVGNQDYDYWGQGTQVTVSS | high polyreactivity |
| QVQLVESGGGLVQAGGSLRLSCAASGFILQTYAMGWYRQAPGKERELVAAITSGARTYYADSVKGRFTISRDNAKNTVYLQMNSLKPEDTAVYYCAASIWLYRYYYWGQGTQVTVSS | high polyreactivity |
| QVQLVESGGGLVQAGGSLRLSCAASGFTFSFYAMGCDRQAPGKERELVATISSGGSTTYADSVKGRFTISRDNANNTVYLHMNSLKPEDTAVYYCAARYGRVRNYRYDYWGKGTQVTVSS | high polyreactivity |
| QDQLVESGGGLVQAGGSLRLSCAASGRTFRVYAMGWYRQAPGKERELVATITSSGGSTYYADSVKGRFTISRDNAKNTVYLQMNCLKPEDTAVYYCAADGGSASIHDYWGQGTQVTVSS | low polyreactivity |
| QVQLLESGGGLVQAGGSLRLTCMASGSILGDRMSWYRQARGKEHELVATIYDGGITYYADSMKGRFTISRDNAKNTVYLQLNSLRPEDTAVYYCGASFEGYRYHVYCGQGTQVTVSS | low polyreactivity |
| QVQLVESGGGLVQAGGSLRLSCAASGRLFTYYVMGWYRQAPGKERELVAAISYGGGSTYYADSVKGRFTISRDNAKNTVYLQMNSLKPEDTAVYYCAAEDGYRKMDYWGQGTQVTVSS | low polyreactivity |
| QVQLVESGGGLVQAGGSLRLSCAASGFTLRKYSMGWYRQAPGKEREFVATISSRAASTYYADSVKGRFTISRDNAKNTVYLQMISLKPEDTAVYYCNKVSPYRGYYWGQGTQVTVSS | high polyreactivity |
| QVQLVESGGGLVQAGGSLRVSCAASGYTFDLYAMGWYRQAPGKERELVADISSGGSTNYADSVKGRFTISRDNAKNTVYLQMNSLKPEDTAVYYCAVDADRTLFGQYYVSEYGGGYWGQGTQVTVSS | low polyreactivity |

| Sequence | polyreactivity (PSR sort gate) |
| --- | --- |
| QVQLVESGGGLVQAGGSLRLSCAASGLTFHYYGMGWYRQAPGKERELVAAISSGGSTYYADSVKGRFTISRDNAKNTVYLQMNSLKPEDTAVYYCAASLAYWYRGHYDYWGQGTQVTVSS | low polyreactivity |
| QVQLVESGGGLVQAGGSLRLSCAASGRTFPYYAMGWYRQATGKERELVARIRSDGSTNYADSVKGRFTISRDNANNTVYLQMNSLKPEDTAVYYCAGKPYPSLFFHYGYWGQCTQVTVSS | low polyreactivity |
| QVQLVESGGGLVQAGGSLRLSCAASGFTLFGYAMGWYRPAPGKERELVAAITRSGGSTFYADSVKGRFTISRDNAKNTVYLQMNSLKPEDTAVYYCAAVRSKLYYYWGQGTQVTVSS | high polyreactivity |
| QVQLVDSVGGLVQAGGSLRLSCAASGSIFGYYAMAWYRQAPGKERELFASITRSGDTTYYADSVKGRFTISRDNANNTVFLQMNSLKQEDTAVSYCAARRWRWYYDGFVRMDYWGQGTQVTVSS | high polyreactivity |
| QVQLVESGGGLVQAGGSLRLSCAASGSIFVWNAMGWYRQAPGKERELVARIRYSSNTYYADSVKGRFTISRDNAKNTVYLQMNSLKPEDTAVYYCAAGSTRYAGWTYNYWGQGTQVTVSS | high polyreactivity |
| QVQLVESGGGLVQAGGSLRLSCAASGRTFYRYVMGWYRQAPGKERELVATITNGGSTNYADSVKGRFTISRYNAKNTVYLQMNSLKPEDTAVYYCAADYPGYVGWPYSYEYYYWGQCTQVTVSS | low polyreactivity |
| QVQLVESGGGLVQAGGSLRLSCAASGRISTYTMGWYRQAPGKERELVATISTHASTNYSDSVKGRFTISRDNAKYTVYLQKYSMKPEDNAVFYCATTVPVILYVTPSTYAVVGYEYWGQGTQVTVSS | low polyreactivity |
| QVQLVESAGGLVQAGGSLRLSCAASGFTFKSNAMGWYRQAPGKEREMVAAIDSRGDRTYYADSVKGRFTISRDNAKNTVYLQMNSLKPEDTAVYYCATKWRTYWSSGEYWGQGTQVTVSS | high polyreactivity |
| QVQLQESGGGLVQAGGSLRLSCASSGSIYDDTYMGWYRQAPGKERELVATIDSGSTTNYADSVKRRITISRDNAKNTVYLQMNSLKPEDTAVYYCAAADSHIDYFDYWGQGTQVTVSS | low polyreactivity |
| QVQLVESGGGLVQAGGSLRLSCAASGRTFTKYAMGWYRQAPGKERELVAAISRSGGSTYYADSVKGRFTISRDNAKNTVYLQMNSLKPEDTAVYYCAARGQYRYSFGDYSWGQGTQVTVSS | high polyreactivity |
| QVQLVESAGGLVHAGGSLRLSCAASGFIFWYYAMGWDRQSPGKERELVASISRGGDSTYYADSVKGRFTISRDNAKNTVYVQMNSLKPVDTAVYYCNARGRYRKSERRAFDYWGQGTQVTVSS | high polyreactivity |
| QVQLVESGGGLVQAGGSLRLSCAASGSIFTHNAMGCYRQAPGKERELVAAMSSGGSTNDADSVKGRFTISRDNAKNTVYLKMNSLTPEDTAVYYCAKSIDGWYWRRRRYDYWGQGTQVTVSS | low polyreactivity |
| QVQLVESGGGLVQAGGSLRLSCAASGGTFQQNAMGWSRQAPGKERELVAAISWSDGSTYYADSVKGRFTISRDYATNTVYLQMNSLTPEDTAVYYCAADFTYYDSPYRDYNYESWGQGTQVTVSS | low polyreactivity |
| QVQLVESGGGLVQAGGSLRLSCTASGRTLYNYTMGWYRQAPGKERELVAAISRGGGSTYYADSVKGRFTISRDNAKNTVYLQMNSLKQEDTAVYYCATDQTYPYCGGGDYWGQGTQVTVSS | low polyreactivity |
| QVQLVESGGGLVQAGGSLRLSCAASGSIFSYYAMGWYRQAPGKERELVAAITTSGGSTYYADSVKGRVTISRDNAKNTVYLQMNSLKPEDTAVYYCAAETAWYITTGYDYWGQGTQVTVSS | low polyreactivity |
| QVQLVESGGGLVQAGGSLRLSCAASGFIFRYYAMGWYRQAPGKERELVAAISGNGGNTYYADSVKGRFTISRDNAKNTVYLQMNSLKPEDTAVYYCNRAPGYRGGRYDYWGQGTQVTVSS | high polyreactivity |
| QVQLVESGGGLVQAGGSLRLSCAASGRTFYQYYMGWYRQSPGKEREVVAAIDWSGGSTYYADSVKGRFTISRDNAKNTVYLQMNSLKPEDTAVYYCNADAYPHPVVGYDYWGQGTQVTVSS | low polyreactivity |
| QGQLLESGGGLVQAGGSLRLSCAASGRTFRSYAMGWYRQAPGKESELVAASSQRGGSSFYADSVKGRFTISRDNAKNSVYLQMNSLKPEDTAVYYCANPVRSGYDYWGQGSQVTVSS | high polyreactivity |
| QVQLVESGGGLVQAGGSLRLSCAASGSNFSFYAMGWYRQAPGKERELVAAISWSGGTTYYADSVKGRFTISRDNAKNTVYLQMNSLKPEDTAVYYCAASEYDGYGGYYWGQGSQVTVSS | low polyreactivity |
| QVQLVESGGGLVQAGGSLRLSCAASGRTFFANAMGWYRQAPGKERELVAAITSNTGTTYYADSVKGRFTISRDNAKNTVYLQMNSLKPEDTAVYYCAARYTFRYEYWGQGTQVTVSS | high polyreactivity |
